Tests used:
[1] = Production of indigo using isolated enzymes (colour reaction with indole and NADPH); format: biochemical
Excerpt: It is known that indigo is accessible from indole by microbial transformation (24-26). None of these microbial systems, however, contained a P450 monooxygenase. According to the invention, the catalytic activity of the pure enzyme for indole was first determined. The mutant F87L188A74 was mixed with indole. No color reaction could be observed. […] By adjustment of the pH of the reaction mixture to a value of approximately 11, 30 sec after addition of NADPH, the blue coloration was visible within a few seconds. […] The blue pigment was extracted using ethyl acetate and analyzed by TLC. The blue pigment again separated into a more rapidly running blue component and into a slower running red component. The Rf values and the absorption spectra were identical to those values of the extracts from the fermentation broth. The F87L188A74 mutant of P450 BM-3 is thus an indole hydroxylase.

[2] = Activity test for the indole hydroxylation (kinetic parameters); format: biochemical; details: excess of purified enzyme and high indole concentration for the wild type
Protocol: The indole hydroxylation activity was tested in a solution which contained 8 μl of a 10-500 mM indole solution in DMSO, 850 μl of tris/HCl buffer (0.1 M, pH 8.2) and 0.6 nmol of P450 BM-3 wild type or mutant in a final volume of 1 ml. The mixture was preincubated for 9 min before the reaction was started by addition of 50 μl of an aqueous 1 mM solution of NADPH. The reaction was stopped after 20 sec by addition of 60 μl of 1.2 M KOH. Within 5 to 30 sec (under aerobic conditions), the enzyme products were converted completely into indigo [Δ^2,2′-biindoline]-3,3′-dione) and indirubin ([Δ^2,3′-biindoline]-2′,3-dione). The indigo production was determined by means of its absorption at 670 nm. […] A linear curve was obtained for indigo production in a reaction time of 40 sec using 0.6 nmol of wild type or P450 BM-3 mutant and 0.05 to 5.0 mM of indole. […] The formation of indirubin was neglected in the determination of the kinetic parameters. The NADPH consumption was determined at 340 nm and calculated as described (17) using an extinction coefficient of 6.2 mM^−1 cm^−1.
Pure samples of the wild-type enzyme P450 BM-3 and of the mutants Leu188Gln, Phe87Val, F87L188 and F87L188A74 were used for the determination of the kinetic parameters of indole hydroxylation.

B1: WT: wild-type cytochrome P450 monooxygenase BM-3 from Bacillus megaterium (SEQ ID NO:2) (protein, listed as Bacillus megaterium)
chain: TIKEMPQPKTFGELKNLPLLNTDKPVQALMKIADELGEIFKFEAPGRVTRYLSSQRLIKEACDESRFDKNLSQALKFVRDFAGDGLFTSWTHEKNWKKAHNILLPSFSQQAMKGYHAMMVDIAVQLVQKWERLNADEHIEVPEDMTRLTLDTIGLCGFNYRFNSFYRDQPHPFITSMVRALDEAMNKLQRANPDDPAYDENKRQFQEDIKVMNDLVDKIIADRKASGEQSDDLLTHMLNGKDPETGEPLDDENIRYQIITFLIAGHETTSGLLSFALYFLVKNPHVLQKAAEEAARVLVDPVPSYKQVKQLKYVGMVLNEALRLWPTAPAFSLYAKEDTVLGGEYPLEKGDELMVLIPQLHRDKTIWGDDVEEFRPERFENPSAIPQHAFKPFGNGQRACIGQQFALHEATLVLGMMLKHFDFEDHTNYELDIKETLTLKPEGFVVKAKSKKIPLGGIPSPSTEQSAKKVRKKAENAHNTPLLVLYGSNMGTAEGTARDLADIAMSKGFAPQVATLDSHAGNLPREGAVLIVTASYNGHPPDNAKQFVDWLDQASADEVKGVRYSVFGCGDKNWATTYQKVPAFIDETLAAKGAENIADRGEADASDDFEGTYEEWREHMWSDVAAYFNLDIENSEDNKSTLSLQFVDSAADMPLAKMHGAFSTNVVASKELQQPGSARSTRHLEIELPKEASYQEGDHLGVIPRNYEGIVNRVTARFGLDASQQIRLEAEEEKLAHLPLAKTVSVEELLQYVELQDPVTRTQLRAMAAKTVCPPHKVELEALLEKQAYKEQVLAKRLTMLELLEKYPACEMKFSEFIALLPSIRPRYYSISSSPRVDEKQASITVSVVSGEAWSGYGEYKGIASNYLAELQEGDTITCFISTPQSEFTLPKDPETPLIMVGPGTGVAPFRGFVQARKQLKEQGQSLGEAHLYFGCRSPHEDYLYQEELENAQSEGIITLHTAFSRMPNQPKTYVQHVMEQDGKKLIELLDQGAHFYICGDGSQMAPAVEATLMKSYADVHQVSEADARLWLQQLEEKGRYAKDVWAG
[1]
  blue pigment formation with pure enzyme, indole and NADPH: always negative
[2]
  indole oxidation activity (in words): not able to oxidize indole
